Laboratory results taken from patent US20250236653A1 (ONKO INNATE, published 2025).
Substitutions are numbered along the chain they refer to. Values joined by “and” are separate entries in the source; they are usually repeats but may differ in a detail not shown here. Identical values can stand only once.

Columns and labels:
human IL-12 receptor = human IL-12 receptor (human, UniProt P42701 24-662; Q99665 24-862); experiment: cell-based or functional assay
human OX40 [1] = molecular target: T1, human OX40 (human, UniProt P43489 29-277); experiment: cell-based or functional assay
T1 sequence (looked up): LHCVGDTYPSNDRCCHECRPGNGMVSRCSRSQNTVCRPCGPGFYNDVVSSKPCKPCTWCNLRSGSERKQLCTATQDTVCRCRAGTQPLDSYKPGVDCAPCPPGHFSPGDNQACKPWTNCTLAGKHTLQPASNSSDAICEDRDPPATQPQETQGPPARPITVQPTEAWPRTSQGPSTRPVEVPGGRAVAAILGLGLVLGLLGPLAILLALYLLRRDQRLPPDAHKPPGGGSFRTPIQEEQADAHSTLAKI

human OX40 [2] = molecular target: T1, human OX40; experiment: flow cytometry on hOX40-Jurkat-NF-κB cells
Method: Stained hOX40-Jurkat-NF-κB and cOX40-Jurkat-NF-κB cells were analyzed by flow cytometry using a CytoFLEX (Beckman Coulter), the results of which are depicted in FIGS. 78 and 79, respectively, and summarized in FIG. 80.
Binding of each of the sequence optimized IL-12 ABD fusion proteins to hOX40-Jurkat-NF-κB cells was performed as described in Example 16, the results of which are depicted in FIG. 87 and summarized in FIG. 88.

Sequence of human IL-12 receptor (Q99665 24-862 limits assumed, chain 2 of 2, other chains not shown): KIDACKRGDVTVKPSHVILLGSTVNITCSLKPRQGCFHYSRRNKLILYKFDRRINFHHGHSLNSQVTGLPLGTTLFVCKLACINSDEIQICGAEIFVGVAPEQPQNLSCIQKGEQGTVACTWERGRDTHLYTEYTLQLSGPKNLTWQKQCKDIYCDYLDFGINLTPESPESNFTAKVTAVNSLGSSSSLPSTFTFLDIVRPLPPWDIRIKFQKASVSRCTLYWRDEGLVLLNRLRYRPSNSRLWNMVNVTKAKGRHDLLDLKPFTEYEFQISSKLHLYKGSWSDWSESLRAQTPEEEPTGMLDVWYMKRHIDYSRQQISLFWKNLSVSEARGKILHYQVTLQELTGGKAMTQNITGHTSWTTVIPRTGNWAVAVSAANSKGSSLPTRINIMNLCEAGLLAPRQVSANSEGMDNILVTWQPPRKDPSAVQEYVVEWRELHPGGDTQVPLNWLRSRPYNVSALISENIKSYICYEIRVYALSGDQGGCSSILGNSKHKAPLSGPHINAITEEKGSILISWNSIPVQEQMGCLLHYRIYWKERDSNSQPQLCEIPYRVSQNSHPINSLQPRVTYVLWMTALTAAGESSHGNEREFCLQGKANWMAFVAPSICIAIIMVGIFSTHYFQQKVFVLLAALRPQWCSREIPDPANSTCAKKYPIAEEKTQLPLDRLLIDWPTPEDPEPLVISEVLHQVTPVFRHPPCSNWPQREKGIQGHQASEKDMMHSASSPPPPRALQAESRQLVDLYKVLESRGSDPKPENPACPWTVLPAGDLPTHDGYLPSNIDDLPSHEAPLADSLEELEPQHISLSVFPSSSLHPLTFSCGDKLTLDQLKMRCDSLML

B1: commercially available recombinant mouse IL-12 (rmIL-12, BioLegend) (ligand)
chain 1: RVIPVSGPARCLSQSRNLLKTTDDMVKTAREKLKHYSCTAEDIDHEDITRDQTSTLKTCLPLELHKNESCLATRETSSTTRGSCLPPQKTSLMMTLCLGSIYEDLKMYQTEFQAINAALQNHNHQQIILDKGMLVAIDELMQSLNHNGETLRQKPPVGEADPYRVKMKLCILLHAFSTRVVTINRVMGYLSSA
chain 2: MWELEKDVYVVEVDWTPDAPGETVNLTCDTPEEDDITWTSDQRHGVIGSGKTLTITVKEFLDAGQYTCHKGGETLSHSHLLLHKKENGIWSTEILKNFKNKTFLKCEAPNYSGRFTCSWLVQRNMDLKFNIKSSSSSPDSRAVTCGMASLSAEKVTLDQRDYEKYSVSCQEDVTCPTAEETLPIELALEARQQNKYENYSTSFFIRDIIKPDPPKNLQMKPLKNSQVEVSWEYPDSWSTPHSYFSLKFFVRIQRKKEKMKETEEGCNQKGAFLVEKTSTEVQCKGGNVCVQAQDRYYNSSCSKWACVPCRVRS
Q: With B1 as the binder, how does the “IFNγ in the supernatant of activated/expanded human T cells (AlphaLISA), EC50” value (human IL-12 receptor) read?
A: The value was 0.0193 nM.

B2: mono-mut23-20E5_V4 (Fc fusion)
chain: IWELKKDVYVVELDWYPDAPGEMVVLTCDTPEEDGITWTLDQSSEVLGSGKTLTIQVKEFGDAGQYTCHKGGEVLSHSLLLLHKKEDGIWSTDILKDQKEPKNKTFLRCEAKNYSGRFTCWWLTTISTDLTFSVKSSRGSSDPQGVTCGAATLSAERVRGDNKEYEYSVECQEDSACPAAEESLPIEVMVDAVHKLKYENYTSSFFIRDIIKPDPPKNLQLKPLKNSRQVEVSWEYPDTWSTPHSYFSLTFSVQVQGKSKREKKDRVFTDKTSATVICRKNASISVRAQDRYYSSSWSEWASVPCSGGGGSGGGGSGGGGSGGGGSGGGGSRNLPVATPDPGMFPCLHHSQNLLRAVSNMLQKARQTLEFSPCTSEEIDHEDITKDKTSTVEACLPLELTKNESCLNSRETSFITNGSCLASRKTSFMMALCLSSIYEDLKMYQVEFKTMNAKLLMDPKRQIFLDQNMLAVIDELMQALNFNSETVPQKSSLEEPDFYKTAIKLCILLHAFRIRAVTIDRVMSYLNASGGGGSGGGGSEPKSSDKTHTCPPCPAPEFEGGPSVFLFPPKPKDTLMISRTPEVTCVVVDVSHEDPEVKFNWYVDGVEVHNAKTKPREEQYNSTYRVVSVLTVLHQDWLNGKEYKCKVSNKALPASIEKTISKAKGQPREPQVCTLPPSRDELTKNQVSLSCAVKGFYPSDIAVEWESNGQPENNYKTTPPVLDSDGSFFLVSKLTVDKSRWQQGNVFSCSVMHEALHNHYTQKSLSLSPG
heavy: QVQLVQSGAEVKKPGASVKVSCKASGYTFTSYVMHWVRQAPGQRLEWIGYINPYNEGTKYNEKFKGRATLTSDKSASTAYMELSSLRSEDTAVYYCANYYGSSLSMDYWGQGTLVTVSSASTKGPSVFPLAPSSKSTSGGTAALGCLVKDYFPEPVTVSWNSGALTSGVHTFPAVLQSSGLYSLSSVVTVPSSSLGTQTYICNVNHKPSNTKVDKKVEPKSCDKTHTCPPCPAPEFEGGPSVFLFPPKPKDTLMISRTPEVTCVVVDVSHEDPEVKFNWYVDGVEVHNAKTKPREEQYNSTYRVVSVLTVLHQDWLNGKEYKCKVSNKALPASIEKTISKAKGQPREPQVYTLPPCRDELTKNQVSLWCLVKGFYPSDIAVEWESNGQPENNYKTTPPVLDSDGSFFLYSKLTVDKSRWQQGNVFSCSVMHEALHNHYTQKSLSLSPG
light: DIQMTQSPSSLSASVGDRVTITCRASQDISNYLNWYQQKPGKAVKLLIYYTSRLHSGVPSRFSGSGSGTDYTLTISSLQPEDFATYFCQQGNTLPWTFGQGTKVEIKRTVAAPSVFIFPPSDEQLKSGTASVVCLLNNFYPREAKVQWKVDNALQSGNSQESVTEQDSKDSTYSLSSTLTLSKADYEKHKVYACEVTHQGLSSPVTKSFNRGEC
Q: How did the “IFNγ release by conventional CD4+ T cells (AlphaLISA), EC50, two PBMC donors” value (human OX40 [1]) turn out when B2 was run?
A: The value was 0.0277 nM and 0.0195 nM.

Q: What about the “IFNγ release by induced Treg cells (AlphaLISA), EC50, two PBMC donors” value (human OX40 [1]) of the same binder?
A: Its value is 0.0057 nM and 0.0138 nM.

B3: mono-mut23-20E5_V5 (Fc fusion)
chain: B2 chain
heavy: B2 heavy with E56A
light: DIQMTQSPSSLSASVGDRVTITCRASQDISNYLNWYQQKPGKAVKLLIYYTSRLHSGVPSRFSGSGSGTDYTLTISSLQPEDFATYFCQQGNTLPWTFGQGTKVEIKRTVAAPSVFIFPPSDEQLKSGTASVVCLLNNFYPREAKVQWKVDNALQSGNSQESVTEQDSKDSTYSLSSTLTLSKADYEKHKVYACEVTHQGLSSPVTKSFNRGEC
Q: Does B3 bind (human OX40 [2])?
A: Result: binds

B4: mono-mut23-12H3_V5 (Fc fusion)
chain: B2 chain
heavy: QVQLVQSGAEVKKPGSSVKVSCKASGYTFKDYTMHWVRQAPGQGLEWIGGIYPNNAGSTYNQNFKDRVTLTADKSTSTAYMELSSLRSEDTAVYYCARMGYHGPHLDFDVWGQGTTVTVSSASTKGPSVFPLAPSSKSTSGGTAALGCLVKDYFPEPVTVSWNSGALTSGVHTFPAVLQSSGLYSLSSVVTVPSSSLGTQTYICNVNHKPSNTKVDKKVEPKSCDKTHTCPPCPAPEFEGGPSVFLFPPKPKDTLMISRTPEVTCVVVDVSHEDPEVKFNWYVDGVEVHNAKTKPREEQYNSTYRVVSVLTVLHQDWLNGKEYKCKVSNKALPASIEKTISKAKGQPREPQVYTLPPCRDELTKNQVSLWCLVKGFYPSDIAVEWESNGQPENNYKTTPPVLDSDGSFFLYSKLTVDKSRWQQGNVFSCSVMHEALHNHYTQKSLSLSPG
light: DIQMTQSPSSLSASVGDRVTITCKASQDVGAAVAWYQQKPGKAPKLLIYWASTRHTGVPSRFSGSGSGTDFTLTISSLQPEDFATYYCQQYINYPLTFGGGTKVEIKRTVAAPSVFIFPPSDEQLKSGTASVVCLLNNFYPREAKVQWKVDNALQSGNSQESVTEQDSKDSTYSLSSTLTLSKADYEKHKVYACEVTHQGLSSPVTKSFNRGEC
Q: With B4 as the binder, how does the EC50 (human OX40 [2]) read?
A: Its EC50 is 113 nM.

B5: mono-mut23-12H3_V6 (Fc fusion)
chain: B2 chain
heavy: B4 heavy with A56G, M99L
light: B4 light
Q: Which EC50 (human OX40 [2]) does the source give for B5 here?
A: The EC50 was 645 nM.

B6: IL-12 Fc mut9 (Fc fusion)
chain: RNLPVATPDPGMFPCLHHSQNLLRAVSNMLQKARQTLEFPPCTSEEIDHEDITKDKTSTVEACLPLELTKNESCLNSRETSFITNGSCLASRKTSFMMALCLSSIYEDLKMYQVEFKTMNAKLLMDPKRQIFLDQNMLAVIDELMQALNFNSETVPQKSSLEEPDFYATKIKLCILLHAFRIRAVTIDRVMSYLNAS
Q: Which “SEAP of CCR8-HEK-Blue IL-12 reporter cells (OD 650 nm), EC50” value (human IL-12 receptor) does the source give for B6 here?
A: Its value is 12.5 nM.

B7: commercially available recombinant IL-12 (rIL-12, Miltenyi) (ligand)
chain 1: B6 chain with P40Y, A168K
chain 2: IWELKKDVYVVELDWYPDAPGEMVVLTCDTPEEDGITWTLDQSSEVLGSGKTLTIQVKEFGDAGQYTCHKGGEVLSHSLLLLHKKEDGIWSTDILKDQKEPKNKTFLRCEAKNYSGRFTCWWLTTISTDLTFSVKSSRGSSDPQGVTCGAATLSAERVRGDNKEYEYSVECQEDSACPAAEESLPIEVMVDAVHKLKYENYTSSFFIRDIIKPDPPKNLQLKPLKNSRQVEVSWEYPDTWSTPHSYFSLTFCVQVQGKSKREKKDRVFTDKTSATVICRKNASISVRAQDRYYSSSWSEWASVPCS
Q: With B7 as the binder, how does the “SEAP of CCR8-HEK-Blue IL-12 reporter cells (OD 650 nm), EC50” value (human IL-12 receptor) read?
A: Its value is 0.17 nM.
